Legend:
[1] = molecular target: T1, substrate EEISEVNLAAEF
T1 chain: EEISEVNLAAEF

[2] = molecular target: T2, substrate RWHHEVNLAAEF
T2 chain: RWHHEVNLAAEF

[3] = molecular target: T3, substrate EVNLAVEFWHDR
T3 chain: EVNLAVEFWHDR

B1: memapsin 2 (spontaneously activated promemapsin 2-T1; amino acids 43-456 and 45-456 of SEQ ID NO: 8) (protein)
chain: LRLPRETDEEPEEPGRRGSFVEMVDNLRGKSGQGYYVEMTVGSPPQTLNILVDTGSSNFAVGAAPHPFLHRYYQRQLSSTYRDLRKGVYVPYTQGKWEGELGTDLVSIPHGPNVTVRANIAAITESDKFFINGSNWEGILGLAYAEIARPDDSLEPFFDSLVKQTHVPNLFSLGLCGAGFPLNQSEVLASVGGSMIIGGIDHSLYTGSLWYTPIRREWYYEVIIVRVEINGQDLKMDCKEYNYDKSIVDSGTTNLRLPKKVFEAAVKSIKAASSTEKFPDGFWLGEQLVCWQAGTTPWNIFPVISLYLMGEVTNQSFRITILPQQYLRPVEDVATSQDDCYKFAISQSSTGTVMGAVIMEGFYVVFDRARKRIGFAVSACHVHDEFRTAAVEGPFVTLDMEDCGYNIPQTDEST
rate of catalysis, competitive cleavage of a mixture of three peptides (MALDI-TOF) [1]: statistically identical rates of catalysis for the upstream EEIS (SEQ ID NO: 52) and the downstream WHDR (SEQ ID NO: 29) sequence additions
rate of catalysis, competitive cleavage of a mixture of three peptides (MALDI-TOF) [2]: the RWHH (SEQ ID NO: 53) sequence addition still demonstrated a 60-fold decrease in catalytic rate
rate of catalysis, competitive cleavage of a mixture of two peptides (MALDI-TOF), against EVNLAAEFWHDR [2]: a 60-fold decrease in the rate of catalysis for the upstream RWHH (SEQ ID NO: 53) sequence addition when compared to the downstream WHDR (SEQ ID NO: 29) sequence addition
Km [3]: Km of 83±8.9 mM

From patent publication US20100267609
